Laboratory results from patent US20150299335A1 (X BODY, published 2015).

Assays:
[1] = biological target: T1, HER2 (UniProt P04626 23-652, limits assumed); assay: saturation binding curve, CPM against Her 2 (nM), 0 to 50 nM, plateau about 470 CPM; the text does not name the assay [upper left graph]
T1 construct: also called receptor tyrosine-protein kinase erbB-2

[2] = biological target: T1, HER2; assay: surface plasmon resonance (Biacore)
[3] = biological target: T1, HER2; assay: surface plasmon resonance (Biacore Kinetics), table under the sensorgrams [table at the bottom]
[4] = biological target: T1, HER2; assay: saturation binding curve, CPM against Her 2 (nM), 0 to 50 nM, plateau about 470 CPM; the text does not name the assay [left graph]

B1: B8 anti-HER2 VH domain (other)
VH: EVQLVESGAEVKEPGASVKVSCKSSGYSFTGNYMHWVRQAPGQGLEWMGWMNPKSGGTYYAQKFQGRVTMTWDTSISTAYMELSGLTSDDTAVYYCARWARGSTSPHGLDVWGQGTLVTVSS
notes: Stand-alone antibody VH domain with no light chain; also called B8 VH domain; B8 VH
A Kd [1] of 1.4 nM, a Kd [2] of 1.2 nM and a kon [2] of 139000 M⁻¹ s⁻¹ were found for B1 in this work. It also gave a Kd [3] of 1.2 nM, a koff [3] of 0.000167 s⁻¹ and a kon [3] of 139000 M⁻¹ s⁻¹. It also gave a Kd [4] of 1.4 nM.
